Source: patent publication US20230183331A1

Target: IL-2 receptor (IL-2R) on primary pan T-cells from healthy donors (human) (UniProt P01589)
Experiment: cell-based or functional assay

Sequence of IL-2 receptor (IL-2R) on primary pan T-cells from healthy donors (human) (P01589 22-272, chain 1 of 3): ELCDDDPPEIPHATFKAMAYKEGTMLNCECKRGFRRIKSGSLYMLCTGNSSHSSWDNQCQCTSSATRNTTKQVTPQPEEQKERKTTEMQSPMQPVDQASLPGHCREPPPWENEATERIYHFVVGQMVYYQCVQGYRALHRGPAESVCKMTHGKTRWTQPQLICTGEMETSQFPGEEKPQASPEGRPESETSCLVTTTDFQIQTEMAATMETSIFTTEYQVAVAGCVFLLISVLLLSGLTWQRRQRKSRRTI
Sequence of IL-2 receptor (IL-2R) on primary pan T-cells from healthy donors (human) (P14784 27-551, chain 2 of 3, further chain): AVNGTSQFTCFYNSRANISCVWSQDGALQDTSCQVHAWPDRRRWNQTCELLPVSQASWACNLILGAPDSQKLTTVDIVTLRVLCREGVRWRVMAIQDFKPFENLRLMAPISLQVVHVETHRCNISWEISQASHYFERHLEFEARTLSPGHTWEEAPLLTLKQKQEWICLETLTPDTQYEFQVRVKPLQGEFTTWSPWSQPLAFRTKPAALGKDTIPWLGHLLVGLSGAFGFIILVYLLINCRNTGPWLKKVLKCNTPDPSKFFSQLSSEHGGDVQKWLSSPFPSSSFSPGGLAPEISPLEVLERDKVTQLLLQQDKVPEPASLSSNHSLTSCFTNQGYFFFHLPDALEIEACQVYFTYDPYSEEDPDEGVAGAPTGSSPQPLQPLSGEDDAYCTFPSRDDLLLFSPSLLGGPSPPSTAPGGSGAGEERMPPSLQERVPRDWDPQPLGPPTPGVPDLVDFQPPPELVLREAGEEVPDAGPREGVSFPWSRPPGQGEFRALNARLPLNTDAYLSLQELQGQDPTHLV
Sequence of IL-2 receptor (IL-2R) on primary pan T-cells from healthy donors (human) (P31785 23-369, chain 3 of 3, further chain): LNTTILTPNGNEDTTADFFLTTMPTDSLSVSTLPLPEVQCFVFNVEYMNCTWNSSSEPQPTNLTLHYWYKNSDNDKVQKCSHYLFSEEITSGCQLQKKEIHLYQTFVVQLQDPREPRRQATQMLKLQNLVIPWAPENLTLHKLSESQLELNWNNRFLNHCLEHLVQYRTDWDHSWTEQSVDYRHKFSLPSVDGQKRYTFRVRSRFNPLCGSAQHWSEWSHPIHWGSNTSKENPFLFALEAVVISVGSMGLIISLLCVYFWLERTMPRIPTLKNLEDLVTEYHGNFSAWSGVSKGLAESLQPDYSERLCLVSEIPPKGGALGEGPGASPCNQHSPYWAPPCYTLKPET

- CD8 EC50 (nM), STAT5 phosphorylation: 9.07 nM
- CD8 naïve EC50 (nM), STAT5 phosphorylation: 477 nM
- Treg EC50 (nM), STAT5 phosphorylation: 0.019 nM
Substance: Aldesleukin (from UniProt P60568 22-153) (ligand)
